One assay deals with T1, human Nectin-4 (Homo sapiens, UniProt Q96NY8).
T1 construct: His tag; purchased Acro Biosystems NE4-H52H3
T1 sequence (Q96NY8 32-510): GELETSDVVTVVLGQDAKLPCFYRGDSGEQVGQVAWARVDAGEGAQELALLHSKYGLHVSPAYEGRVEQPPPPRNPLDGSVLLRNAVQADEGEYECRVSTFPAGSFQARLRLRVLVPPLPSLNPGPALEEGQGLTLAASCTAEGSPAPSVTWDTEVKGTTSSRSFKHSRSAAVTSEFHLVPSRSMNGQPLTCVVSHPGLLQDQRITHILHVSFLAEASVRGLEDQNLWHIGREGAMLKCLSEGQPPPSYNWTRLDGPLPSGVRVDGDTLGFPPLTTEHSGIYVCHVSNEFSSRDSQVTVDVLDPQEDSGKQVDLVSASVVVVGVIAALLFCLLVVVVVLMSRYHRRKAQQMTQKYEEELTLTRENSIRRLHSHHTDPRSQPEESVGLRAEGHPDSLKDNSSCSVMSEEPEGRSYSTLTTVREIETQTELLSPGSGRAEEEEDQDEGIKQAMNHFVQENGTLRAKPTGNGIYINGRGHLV
The assay is described as follows: Surface plasmon resonance (Biacore 8K+) binding of nectin-4 ADCs to human Nectin-4. Particulars: human Nectin-4, 37° C., ADC Formula XI DAR 8; n=3 mean ± SD, n=2 replicate values. How it is done:
(§1) An anti-human Fc sensor surface was prepared by amine-coupling of goat anti-human IgG Fc (Southern Biotech Cat. No. 2014-01, Birmingham, AL) to a Biacore Series S CM4 (Cytiva Cat. No. BR-100534) sensor surface at 25° C. For immobilization, a running buffer of 10 mM HEPES, 150 mM NaCl, 0.05% Tween-20, pH 7.4 was used. Flow cells 1 & 2 of all 8 channels were activated with a 1:1 (v/v) mixture of 400 mM 1-Ethyl-3-(3-dimethylaminopropyl) carbodiimide hydrochloride (EDC) and […] N-Hydroxysuccinimide (NHS) at a flow rate of 10 uL/min for 7 minutes. Then the anti-human IgG Fc capture reagent was coupled to the sensor surface (diluted to 50 μg/mL in 10 mM Acetate pH 4.5 buffer) by injecting it in all flow cells and channels at a flow rate of 10 uL/min for 7 minutes. Remaining active groups were blocked by injecting 100 mM ethylenediamine (in 200 mM Borate buffer, pH 8.5) in all flow cells and channels at a flow rate of 10 uL/min for 7 minutes. All channels and flow cells were then preconditioned using three consecutive 1-minute injections of 75 mM phosphoric acid at 10 uL/min.
(§2) In each analysis cycle, a different ADC was captured on flow cell 2 of each channel by injecting it at 5 μg/mL and 10 uL/min. After capture, the same analyte was injected on flow cells 1 and 2 in all 8 channels for 2 minutes at 30 uL/n and dissociation was monitored for 10 minutes. After dissociation, all surfaces were regenerated with three 1-minute injections of 5 mM phosphoric acid at 10 uL/min. ADC capture and analyte cycles were repeated to obtain analyte binding of each ADC at concentrations of 0, 2.5, 7.4, 22, 67, 200 and 600 nM nectin-4.
(§3) Sensorgram data were fit globally with the default 1:1 binding model in Biacore Insight Evaluation Software v3.0.12.15655.

The next assay relates to cyno Nectin-4. The assay can be described thus: Surface plasmon resonance (Biacore 8K+) binding of nectin-4 ADCs to cyno Nectin-4. The conditions noted are these: cyno Nectin-4, 37° C., ADC Formula XI DAR 8, n=1. How it is done:
as §1, §2, §3

In the next assay the test system is rat Nectin-4. The assay is described as follows: Surface plasmon resonance (Biacore 8K+) binding of nectin-4 ADCs to rat Nectin-4. The conditions noted are these: rat Nectin-4, 37° C., ADC Formula XI DAR 8, n=1. How it is done: as §1, §2, §3
The test system of assay [1] is UMUC3-Luc-GFP + UMUC3-hNectin4 clone F7. The assay is described as follows: Bystander killing of UMUC3-Luc-GFP cells co-cultured with UMUC3-hNectin4 clone F7 (ONE-Glo). It counts as cell-based, human. The conditions noted are these: UMUC3-hNectin-4 cloneF7/UMUC3-Luciferase-GFP 4:1, 5 days. The procedure: UMUC3 cell line was engineered to express human Nectin4 and two clonal populations with different levels of expression were selected. In flat white clear-bottom 96-well plates, UMUC3-hNectin4 clone F7/UMUC3-Luc-GFP cells were mixed and seeded at a total of 1500 cells/well/100 ul with a ratio of 4:1 in assay medium (MEM+1× GlutaMax+10% Heat Inactivated Fetal Bovine Serum+1 mM sodium pyruvate). UMUC3-hNectin4 clone E3/UMUC3-Luc-GFP cells were mixed and seeded at a total of 2100 cells/well/100 ul with a ratio of 6:1 in assay medium. UMUC3-Luc-GFP cells were negative for nectin-4 expression. Plates were incubated at 37° C. with 5% CO2 overnight. […] Plates were read after 5-days treatment using ONE-GloTM Luciferase Assay System. […] Luminescence was read in the SpectraMax M5e. […] Percentage of UMUC3-Luc-GFP killing was calculated against no treatment as 0%. Data was graphed and analyzed using Graphpad Prism version 9.5.1. IC50 was determined via log(inhibitor) vs. response (three parameters) curve fitting for bystander activity and log(inhibitor) vs. response (four parameters) for free payload cytotoxicity. […] In experiments run as essentially described herein, the bystander effects of four nectin-4 ADCs described herein and enfortumab vedotin were evaluated using the UMUC3-hNectin-4 cloneF7/UMUC3-Luciferase-GFP cell pair. […]

Assay [2] relates to T24 mScarlet clone 5 Nectin-4 negative cells. The assay is described as follows: Bystander killing of T24-mScarlet clone 5 cells co-cultured with T24-human nectin4 clone108 (imaging). It counts as cell-based. The conditions noted are these: T24-mScarlet clone5 : T24-human nectin4 clone108 9:1, 5 days, ADC Formula XI DAR 8; read-out: IC50 of bystander effect. How it is done: T24 cell line was engineered to express mScarlet and clonally selected to test in bystander assay. T24-mScarlet clone5 and T24-human nectin4 clone108 were mixed and seeded at a total of 1000 cells/well/100 ul with a ratio of 9:1 in culture medium (McCoy's 5A+1× GlutaMax+10% Heat Inactivated Fetal Bovine Serum+400 μg/ml G418) in flat clear bottom 96-well plates. T24 mScarlet clone 5 cells were negative for nectin-4 expression. Plates were incubated at 37° C. with 5% CO2 overnight. Next day, ADCs were added at final working concentration from 50 nM, 1:4 serially diluted in culture medium. Plates were covered with Breathe-Easy® sealing membrane, placed in BioSpa and scanned in Cytation5 every day for 5 days.
Images of T24-mScarlet cells were captured and analyzed by Cytation5 with Gen5 Image Prime 3.11. Percentage of T24-mScarlet cell killing was calculated by decreased Integrated Intensity (area×mean intensity), normalized to zero hour and no treatment. Data was graphed and analyzed using GraphPad Prism version 9.5.1. IC50 was determined via log(inhibitor) vs. response-variable slope (four parameters) curve fitting.

“And” between values parts separate entries of the source, which are not always exact repeats. Equal entries are not always repeated.

B1: Ab1a (conjugate)
heavy: QVQLVQSGAQVKKPGASVKVSCKASGYTFTGYYIHWVRQAPGQGLEWMGWINPNSGGTNYAQKFQGRVTMTRDTSISTAYMELSRLRSDDTAVYFCAREDWDFDYWGQGTLVTVSSASTKGPSVFPLAPSSKSTSGGTAALGCLVKDYFPEPVTVSWNSGALTSGVHTFPAVLQSSGLYSLSSVVTVPSSSLGTQTYICNVNHKPSNTKVDKRVEPKSCDKTHTCPPCPAPEAAGGPSVFLFPPKPKDTLMISRTPEVTCVVVSVSHEDPEVKFNWYVDGVEVHNAKTKPREEQYNSTYRVVSVLTVLHQDWLNGKEYKCKVSNKALPAPIEKTISKAKGQPREPQVYTLPPSREEMTKNQVSLTCLVKGFYPSDIAVEWESNGQPENNYKTTPPVLDSDGSFFLYSKLTVDKSRWQQGNVFSCSVMHEALHNHYTQKSLSLSPGK
light: EIVLTQSPGTLSLSPGERATLSCRTSQSVSSSYLAWYQQKPGQAPRLLIYGASNRATDIPDRFSGSGSGTDFTLTINRLEPEDFAVYYCQQYGSSPITFGQGTRLEIKRTVAAPSVFIFPPSDEQLKSGTASVVCLLNNFYPREAKVQWKVDNALQSGNSQESVTEQDSKDSTYSLSSTLTLSKADYEKHKVYACEVTHQGLSSPVTKSFNRGEC
Take B1: the ka was 2.83 × 10^5, 1/Ms and 4.24 × 10^5 1/Ms in the assay with human Nectin-4; 310000 M⁻¹ s⁻¹ in the assay with cyno Nectin-4; 252000 M⁻¹ s⁻¹ with rat Nectin-4. In addition, the kd with human Nectin-4 was 4.02 × 10^−2, 1/s and 3.08 × 10^−2 1/s; on cyno Nectin-4, 0.026 s⁻¹; at rat Nectin-4, 0.0453 s⁻¹. The “Bystander effect (in words)” value in assay [1] is recorded as “potent bystander effects”. Further, the IC50 in assay [2] amounted to 0.041 nM.

The values are drawn from patent US20250000991A1, “NECTIN-4 ANTIBODIES AND ANTIBODY-DRUG CONJUGATES” (Eli Lilly and Company, priority 2023, published 2025).
